Source: the DeepSol protein solubility set

Test: soluble on expression in E. coli; label from the status in PepcDB or PDB records

| Sequence | soluble on expression in E. coli |
| --- | --- |
| MKSASDPFDLKRFVYAQAPVYRSVVEELRAGRKRGHWMWFVFPQLRGLGSSPLAVRYGISSLEEAQAYLQHDLLGPRLHECTGLVNQVQGRSIEEIFGPPDDLKLCSSMTLFARATDANQDFVALLAKYYGGGEDRRTVALLAVT | soluble |
| MKSKRLSLVLMTAALGLTACATTQSPTGRSQTLLYSSSQMQQMGDASFAEMKKQQKISGNKKLTQYVNCVANRVTAVLPDQTQKWDVVLFDSEQVNAFALPGGHIGVYTGLLKVASTPDQLATVLGHEVAHVLAQHGNEQVSRSQMTGMGMQIADAALGAGGVSNRDLYMSALGLGAQVGVILPFGRAQESEADIMGLELMARAGFDPAQSVVLWQNMSKAGGGKGPELLSTHPSNNNRIAQLEQLQGQMQPLYQSAKANIKNQCAAPKLEHHHHHH | not soluble |
| MKSMPTISRIQRIKEYLSKRKLSQRRKVGVLVDGPNMLRKEFNINLKEIREILSEYGDIKIAKVFLNQYATEKLVEAIENQGFEPIVTSGDVDVRMAVEAMELIYNDSIDAVALVTRDADFKAVLMKAMEMGKETIIIGAEPGFSTALKNSADIAIVLNEDEEKEKGDADEEEIIEV | not soluble |
| MKSPSAGAPDRHASSRSVPDRWNMHKPMLCDSLPTASRTAAAILNLAQREDVTAEALAQLIQTDPALTGRILRFANAPAQGTRRPVASVIDAIDLVGLPAVRQFALSLSLIDAHREGRCEAFDYAAYWQKSLARAVALQSITAQASTVAPKEAFTLGLLADVGRLALATAWPEEYSECLRKADGEALIALERERFATDHDELTRMLLTDWGFPQVFIDALQLSQQDEIRDEGRTGRFARQLALAQHIADHRLAEEPRRAALSPLLRAEARRCGLGDEDLARLLADPPADWLDWTRTIGLPGDAPTGGAEPSRPPPQTDEKLHVLLADDDPIMLARLSRQLEADGHHVASRRDGETALAYALEHQPEMVITDWHMKPMNGLELCRALRESALGGNVYIVMLTASESEDALVEAFGAGIDDYVIKPPSVRVLKARIRAGQRIITLHKKLARERKEIERYSSELAAANRRLELMAHTDQLTGLPNRRYAMDRLEREWAQARTFDRPLSIMMLDLDWFKSINDSLGHDAGDQALVHAARVMRETVRTSDVVCRMGGEEFLIIIPDTAGPAAIQTAERVRSAVEQQQPAKLKLSRPLTASIGVADSTSAPSLKDLLLKADNALYQVKQNGRNGVRYAGLAAALEHHHHHH | not soluble |
| MKSRREQSIEEAIVANYLKMMIDNVNVWPRHFLRSEDVYCKNPWTLFVTRDPIILHFGRYFFVNRSVNSGLTDGCEYGCWRIIGRDRVIKSVTTGKILGLKKVYKFCETDRKPKSVFKFLEKEKRRVRDRRIWAMEEYRFASTWKQDYVICKIRRLYPQPFDYMLAQHIRGYYK | soluble |
| MKSTGETLNIEEKVFAIADQFDHQGKIVQIKPFGNGNINDTFLVDLDGQTQTSFILQRINHQVFKNPAAVMGNMVRVTTHIKQKLQRQPLERPWLMPEVILTKNNQDHWDSGTGEFWRAISFIAGSESFDILTDPAQAKEVGTALGIFHQLLSDLSPSQLVDTLPGFHHTPIYLQQYQRALAQNPKLTGSLGPEINHCQRVIKTWLDQCGVLETAKAQGQLPLRLMHGDPKVNNILFDRQSGKAVSVIDLDTTKPGLIHYDLGDCLRSGCNLLGEETENWSAVEFDLDLCRAILEGYLPQCQHFLTAADYDYLCPAIVLISFELGLRFFTDYLNGDRYFKVKYPEHNLIRALVQFQLASHIQSQEDAIRRMIEDIRGLEHHHHHH | not soluble |
| MKTDRLLADTKTIRYEETDLASLISAPYHFRCGIYLICTQGEAVVSTGVQKYIFNEQTELIFLTGGLLQVLETSGDLQVKMLMFPKEAFLNAMLPIDTPYFNYTHEHPCYHHTADERSQKTWRQINLWMDMAQMLFTEPMPQFRGQQEHNFLQSLLMWLFNTIPEKLAVSKQYSRTQLLCHRFMQLIREYSMHEHQVAFYAEKLCISSRYLHKITVRHLDGKKPKQLIDEQLVAEIKVLLNEPRLSVTEIAEQLHFPDQSYLTHFFKKNTGISPKEFRAIKNLG | not soluble |
| MKTFEELCQENYSRIYKYIFSMTGSKESTEDLIQEVFIAAYEKGEAFLRHEKPAAFLYKTARNMTVTYLKNLKRQRISAMEYLSENIPQDDTDLCETLLMELDRKIDETAYTGQVIGNLNTNQHNLYRQRYVEGKSIKEIASEEGVSETAMRMRLVRLRKEIQDIVKKLKLGEK | not soluble |
| MKTFEVMIQTDSKGYLDAKFGGNAPKAFLNSNGLPTYSPKISWQKVEGAQSYALELIDHDAQKVCGMPFVHWVVGNIAHNVLEENASMMDKRIVQGVNSLTQGFIRSPLNESEKQRSNLNNSVYIGPMPPNGDHHYLIQVYALDIPKLALKAPFFLGDLHDKMRNHIIAIGRKEFLYKQFVRK | soluble |
| MKTINSVDTKEFLNHQVANLNVFTVKIHQIHWYMRGHNFFTLGEKMDDLYSEFGEQMDEVAERLLAIGGSPFSTLKEFLENASVEEAPYTKPKTMDQLMEDLVGTLELLRDEYKQGIELTDKEGDDVTNDMLIAFKASIDKHIWMFKAFLGKAPLE | soluble |
| MKTKPQAPHVDFYEKSELLHFLDCASKHENPQAFMFFRLLAFTGLRRGEALALQWSDINFETNELTVNKTQAVGKRWRTIIQTPKTNTSYRTIVLDPDTAQWLHKWKMTQARQCFELGFNANDPSQLVFTNQQNKLMSPSTVNYFNWSICKKYGLRHIKIHAFRHTFCTLAFEAHAGINEVSKTLGHADLKITEQIYLHVTKKQKNETASKLARYMSELLEHHHHHH | soluble |
| MKTKYVVIIQCDMAKNRCSGMRCTNAFYEKTDAFENYAKDTKYISFTCGGCSGKVVSSKLANFSRWLKKYDCIKKDEVTIHLSSCMSTDNSHYDRCPNIDYIKQIINKKGYTNIVEGSIFSKKSEKLRDEGIYKKYQ | not soluble |
| MKTQFIAGHARLPAGMAAKSLYDTLTITAEIDKKYGVIVEASCTLATEHGRDYVARLLRGHSLRDGIDGLLAELDEGYLGKAHSALCAALKDLYKQYCKMEEKEP | not soluble |
| MKTQHVVVVGAGMGGLAAAIDLASRGLRVTVLERSPSPGGKMREIAVGGARLDAGPTVFTMRWVFEELFADAGASLGESLRLRAAEVLARHTWGDGAPFDLFADAARSTEAVGELAGAAEAKRFVAFCARARGIWQALEGPFIRGQRPSPGELVRRSGLSGLSGLARISPFTLLWKALGEHFHDPRLRQLFGRYATYCGSSPFLAPATLMLVAHVEQQGVWMVDGGMHQIARAMADLATAKGATFRYSTTAESVLVENGKVGGLILQGGERLAADIVLINGDAAALAARCFGPQVAAAVPPVPPTARSLSAVTWGLLAEAEGFPLLRHSVFFGNDYPGEFRDIFTHGRLPSSPTVYVCAQDRGDKAPTVGPSGPRPERLLVLVNAPARGDLSFPDAMELDTCTARTFAFLERCGLTLRRTPEATRVTTPADFNSLFPATGGALYGRASHGWSATFDRPGAKTAMPGLYLAGGSVHPGPGVPMAALSGRLAAQAVLADLTSRGRLEHHHHHH | not soluble |
| MKTRITELLKIDYPIFQGGMAWVADGDLAGAVSKAGGLGIIGGGNAPKEVVKANIDKIKSLTDKPFGVNIMLLSPFVEDIVDLVIEEGVKVVTTGAGNPSKYMERFHEAGIIVIPVVPSVALAKRMEKIGADAVIAEGMEAGGHIGKLTTMTLVRQVATAISIPVIAAGGIADGEGAAAGFMLGAEAVQVGTRFVVAKESNAHPNYKEKILKARDIDTTISAQHFGHAVRAIKNQLTRDFELAEKDAFKQEDPDLEIFEQMGAGALAKAVVHGDVDGGSVMAGQIAGLVSKEETAEEILKDLYYGAAKKIQEEASRWTGVVRNDLEHHHHHH | soluble |
| MKTSDIHDVAIVGAGPAGLSAAYELIRTGFTPLVLERTPAVGDVWRNHYDGLRLNSGRFFSALPGSKFPLSAGGWPSRDEVVSLLETFPARGGFTVQTGIEVEKVSHDRERDIWLITSNDNRQFESRAVVIAAGANRIPIIPEWEGKNTFTGTIIHSSQFKSAQDYAGKHVLVVGSGNSAAEIASRLAKYADSVTMSVRTPPQILPKSIYGIPLIGIGVWTRYLPRALVDGLLNFLRRTMIGDLSVYGLPSPTISMSKQYAINNVVPILYGPFIDDVRSGRIKIVGPVQKISGGTVEVLSTVESALNGDQATTTLQPDIIVAGTGFRTGFPELIQVPGITDEKGRSKISGDQEFKGAPRLYFIGQINPLSGQLREIRLEAGRIARKLDKQLRAKLEHHHHHH | soluble |
